Columns and labels:
COBRA HA TJ2 = COBRA HA TJ2 (COBRA TJ2, designed from influenza A …); assay: BLI; conditions: both partners purified
COBRA HA J4 = COBRA HA J4 (COBRA J4, designed from influenza A …); assay: BLI; conditions: both partners purified

B1: mAb #1664 (antibody, V domains shown)
VH: EVQVMQSGAEARMTGATVKISCKASGYTFSDYFLHWVKQAPGKGLEWMGLVDVDNGEVRYAEKFQGRVTITADTSTETAYLEMTTVTSGDTAVYYCASTTPRGGNPSVYNYFFVDVWGKGTTVTVSS
VL: QPVLTQSSSASASLGSSVKLTCTLSSGHDNYIIAWHQQQPGKAPRYLMQVGAGGTYNKGSGVPHRFSGSSSGADRYLTISNLQSDDEADYYCETWDSKTVFGGGTTLTVL
Kd (COBRA HA TJ2): 450 pM
koff (COBRA HA TJ2): 5.44e-05 s⁻¹
kon (COBRA HA TJ2): 121000 M⁻¹ s⁻¹
Kd (COBRA HA J4): 15200 pM
koff (COBRA HA J4): 0.000454 s⁻¹
kon (COBRA HA J4): 30100 M⁻¹ s⁻¹

B2: mAb TJ5-13 (antibody, V domains shown)
V domain 1: QVQLVQSGAEVKKPGSSVKVSCEASGDTFTTYSGINWVRQAPGQGLEWMGGVLPNFGSPNYAQRFQGRITITVDRSTSLVHMELTNLRSDDTAVYYCTETGAYNSVGYFPYFQFRGQGTLVSVSS
V domain 2: QSVLTQPPSVSGAPGQRVTISCTGSSSNIGADYDVHWYQQLPGTAPKLLIFGNNNRPSGVPDRFSGSKSGTSASLAITGLQAEDEADYYCQSFDKSLSGSFVFGTGTKVTGQ
Kd (COBRA HA TJ2): 50 pM
koff (COBRA HA TJ2): 8.68e-06 s⁻¹
kon (COBRA HA TJ2): 159000 M⁻¹ s⁻¹
Kd (COBRA HA J4): 260 pM
koff (COBRA HA J4): 3.06e-05 s⁻¹
kon (COBRA HA J4): 120000 M⁻¹ s⁻¹

B3: mAb TJ5-1 (antibody, V domains shown)
VH: EVQLVQSGAEVKKPGASVKVSCKASGYTFTGFYLHWVRQAPGQGLEWMGWINPHSGDTDFAQKFQGKVTMTRDTSSNTVYMDVNRLTSDDTAVYYCVKNDIVLGMGVWGQGTTVIVSS
VL: QSVLTQPPSVSGAPGQRVTISCTGSSSNIGAGYNVYWFQQLPPTAPKLLNYGDNNRPSGVPDRFSASKSGTSASLAITGLQAEDEAEYYCQSYDSSLNAYVFGTGTKVTVL
Kd (COBRA HA TJ2): 5640 pM
koff (COBRA HA TJ2): 0.00348 s⁻¹
kon (COBRA HA TJ2): 230000 M⁻¹ s⁻¹
Kd (COBRA HA J4): 230 pM
koff (COBRA HA J4): 6.67e-05 s⁻¹
kon (COBRA HA J4): 284000 M⁻¹ s⁻¹
